In article PMC7156724, “Potent BRD4 inhibitor suppresses cancer cell-macrophage interaction” (Nature Communications, 2020):
Values joined by “and” are separate entries in the source; they are usually repeats but may differ in a detail not shown here. Identical values can stand only once.

How the values were obtained:
in vitro [1] = conditions: SD, rat
Description: (§1) The concentration was calculated using the peak area ratio of analyte and internal […]
(§2) The results were calculated by the following equations:
(§3) % Unbound = 100 *FC / TC, % Bound = 100 * (1-FC / TC)
(§4) % Recovery = 100 * (FC + TC) / T0
(§5) TC = Total compound concentration as determined by the calculated concentration on the retentate side of the membrane
(§6) FC = Free compound concentration as determined by the calculated concentration on the dialysate side of the membrane […]
(§7) Equation of first order kinetics: […]
(§8) 8. Equilibrium dialysis assay. Binding with plasma protein and recovery rate of NHWD-870 were performed with human, CD-1 mouse and SD rat plasma as […]
(§9) described 2. […] The concentration was […]
(§10) calculated using the peak area ratio of analyte and internal standard. The results were calculated by the following equations: % Unbound = 100 *FC / TC, % Bound = 100 * (1-FC / TC); % Recovery = 100 * (FC + TC) / T0; TC = Total compound concentration as determined by the calculated concentration on the retentate side of the membrane; FC = Free compound concentration as determined by the (1 picture or pasted object on this page, not shown here) […]
(§11) calculated concentration on the dialysate side of the membrane; T0 = To t a l compound concentration as determined before dialysis. […]
(§12) 10. hERG channel assay. […]
(§13) HEK293 cell line stably

in vitro [2] = conditions: human
Description: as §1, §2, §3, §4, §5, §6, §7, §8, §9, §10, §11, §12, §13

in vitro [3] = conditions: CD-1, mouse
Description: as §1, §2, §3, §4, §5, §6, §7, §8, §9, §10, §11, §12, §13

[4] = system: PI3K/AKT1 and ERK phosphorylation; test: Western blot of p-PI3K, p-AKT1 and p-ERK in TAMs; type: cell-based, mouse
Description: Supplementary Figure 13. NHWD-870 inhibited CSF1/CSF1R signaling pathw ay to reduce TAM […]
TA M s ( 2 ×10^5 cells) (treated with or without 10 ng/ml CSF1 and 100 nM NHWD-870 for 48 h) were seeded into the 6-well bottom chamber, in the presence or absence of A2780 cells (pre-treated with or without 100 nM NHWD-870 for 48 h) seeded into the top chamber (transwell size: 0.4μm). Shown are schematics of the experiment and representative western blot analysis of the indicated proteins (a), and quantification of the relative levels of p-PI3K, p-AKT1 and p-ERK over their respective total protein (b). Data are presented as mean ± SEM from 3 independent experiments. p values were calculated using two-tailed, unpaired t tests. n.s, no significant; **, p<0.01; ***, p<0.001. Source data are provided as a Source Data file. […]
4. Protein extraction and w estern blot anal ysis. Freshly dissected unfixed tissue was homogenized in lysis buffer. The lysates were centrifuged at 13,000g for 10 minutes at 4°C. Supernatants were collected and determined with a Bradford Protein Assay kit (Bio-Rad, Hercules, CA). The cell lysates were subjected to SDS-PAGE followed by immunoblotting (Immobilon P; Millipore, Milford, MA) with specific antibodies followed by detection using an enhanced chemilumine scence kit (Amersham Life Science, Arlington Heights, IL). […]

TAMs [5] = test: Transwell co-culture of pretreated A2780 cells and TAMs with CSF1 or anti-CSF1R antibodies; type: cell-based, mouse; conditions: 10 ng/ml CSF1
Description: (§14) Fig. 6 CSF1/CSF1R signaling is critical for the tumor inhibitory effects of NHWD-870 and CSF1 induced ovarian cancer growth depends on macrophages. a Number of TAMs after treatment with the indicated concentration of CSF1 for 48 h. Data are presented as mean ± SEM from three independent experiments. b–d Schematics of the experiments (b). A2780 cells (pre-treated with DMSO or 100 nM NHWD-870 for 48 h) were seeded into the top chamber (transwell size: 0.4 μm), and TAMs (Mac, 40,000 cells per 24-well) in medium with PBS or 10 ng/ml CSF1 (c), or 50 ng/ml IgG or anti-CSF1R antibodies (d), were seeded into the bottom chamber. Shown are quantification of TAMs (c, d). Data are presented as mean ± SEM from three independent experiments. e Representative western blot analysis of A2780 cells stably transfected with CSF1 or empty vector (EV). Selected from three independent experiments. f Schematics of the animal experiments using an orthotopic mouse OC model, established by intraperitoneally injecting 1 × 10^6 (g–j) or 2 × 10^6 (k–m) human A2780 cells overexpressing CSF1 or control into female recipient nude mice. Mice were then treated with/without liposomal clodronate (LC) for 45 days (g–j) or treated with/without NHWD-870 (PO, QD, 3 mg/kg) for 37 days (k–m). g Increased mouse body weight was measured at the indicated time points (day 0-45 after LC treatment). h–j Net tumor weight (h), ascitic fluid volumes (i) tumor implantations in peritoneum, omentum and pevic cavity (j) were measured at day 45 from LC treatment. k–m Net tumor weight (k), ascitic fluid volumes (l) tumor implantations in peritoneum, omentum and pevic cavity (m) were measured at day 37 after NHWD-870 treatment. For g–m, data are presented as mean ± SEM from five different mice. p values were calculated using two-tailed, unpaired t tests in this figure. n.s, not significant; *p < 0.05; **p < 0.01; and ***p < 0.001. Source data are provided as a Source Data file.
CD45^+CD11b^+F4/80^+ TAMs were isolated from peritoneal metastasis of A2780 tumor-bearing mice and cultured in RPMI-1640 supplemented with 10% FBS, 1% penicillin/streptomycin, and 0–50 ng/ml CSF1 (R&D Systems) as indicated according to standard protocols. In the cancer cell-macrophage co-culture experiments, CSF1 was not added. In the transwell (Corning, pore size, 0.4 μm) co-culture experiments, tumor cells were placed into the upper chamber, and TAMs were seeded into the lower chamber.

TAMs [6] = test: Ki67 FACS of TAMs induced by CSF1; type: cell-based, mouse; conditions: CSF1 treatment
Description: Flow cytometry analyses were performed using antibodies listed in Supplementary Table 8. For cell surface markers, mouse TAM suspensions were stained with mouse APC-CD45, FITC-CD11b, PE-F4/80 or APC-F4/80, CD68, and PE-CD206 antibodies for 15 min on ice. For Ki67 staining, cells were fixed in 4% paraformaldehyde and stained with FITC-Ki67. Isotype matching antibody served as the negative control. Flow cytometry was performed on a FACSCalibur (BD Biosciences). Data were analyzed with BD CellQuest Pro software version 5.1.
Supplementary Figure 14. NHWD-870 and BRD4 deletion partially inhibite d prolifera tion of TAMs […]
(a) CD45+CD11b+F4/80 + TAMs in the orthotopic B16 melanoma model were harvested from tumors. Shown are representative FACS plots of TAMs. (b,c) Representative FACS plots (b) and quantification (c) of Ki67+ macrophages treated with 50 ng/ml CSF1, and DMSO or 25 or 50 nM NHWD-870. […]
TAMs induced by CSF1. (a-c) CD11b+F4/80+ macrophages in the orthotopic B16F10 melanoma model were harvested from tumor tissues. Shown are representative CD45+, CD11b+, F4/80+ FACS plots (a) and quantification of the percentage of Ki67+ cells after treatment with DMSO or NHWD-870 dependent on CSF1 stimulation (b,c). (d-g) FACS plots and quantification of the percentage of Ki67+ cells after CRISPR/Cas9-mediated BRD4 knockout (d,e) and c-MYC knockout (f,g) in CD11b+F4/80+ macrophages. CSF1 is added at the indicated concentration.
Please also see response to comment # 4 about our 2D assays, in which we used colony number to quantify the number of TAMs.
NHWD-870 treatment and the main differences are colony size.
6. For comparison purposes, it would be a good idea to compare the direct effect of NHWD-870 on in […]
marrow derived macrophage proliferation and gene expression in vitro). […]

TAMs [7] = test: Number of TAMs after treatment with CSF1; type: cell-based, mouse
Description: as §14, with “file. […]” for “file.”

[8] = CSF1 treatment, individual replicates, Ctrl about 1

CC(=O)CC(c1ccccc1)c1c(O)c2ccccc2oc1=O (stereo not drawn) [Warfarin, reference compound]
recovery (in vitro [1]): 86.8%
recovery (in vitro [2]): 90.2%
recovery (in vitro [3]): 99.2%

B1: CSF1: macrophage colony-stimulating factor, purchased from R&D Systems (protein, UniProt P09603 33-554, looked up)
Macrophage colony-stimulating …: EEVSEYCSHMIGSGHLQSLQRLIDSQMETSCQITFEFVDQEQLKDPVCYLKKAFLLVQDIMEDTMRFRDNTPNAIAIVQLQELSLRLKSCFTKDYEEHDKACVRTFYETPLQLLEKVKNVFNETKNLLDKDWNIFSKNCNNSFAECSSQDVVTKPDCNCLYPKAIPSSDPASVSPHQPLAPSMAPVAGLTWEDSEGTEGSSLLPGEQPLHTVDPGSAKQRPPRSTCQSFEPPETPVVKDSTIGGSPQPRPSVGAFNPGMEDILDSAMGTNWVPEEASGEASEIPVPQGTELSPSRPGGGSMQTEPARPSNFLSASSPLPASAKGQQPADVTGTALPRVGPVRPTGQDWNHTPQKTDHPSALLRDPPEPGSPRISSLRPQGLSNPSTLSAQPQLSRSHSSGSVLPLGELEGRRSTRDRRSPAEPEGGPASEGAARPLPRFNSVPLTDTGHERQSEGSFSPQLQESVFHLLVPSVILVLLAVGGLLFYRWRRRSHQEPQRADSPLEQPEGSPLTQDDRQVELPV
PI3K/AKT1 and ERK phosphorylation in TAMs ([4]; 10 ng/ml CSF1): induced PI3K/AKT1 and ERK phosphorylation
p-AKT1 (Sup Fig.13b quantification) [4, 8]: 7.5 and 6.3 and 5.51
p-ERK (Sup Fig.13b quantification) [4, 8]: 3.68 and 4.51 and 5.3
p-PI3K (Sup Fig.13b quantification) [4, 8]: 3.62 and 4.72 and 3.2
rescue of TAM proliferation in co-culture with NHWD-870 pretreated A2780 cells (TAMs [5]): partially rescue the inhibitory effects of NHWD-870
fold induction of TAM proliferation (TAMs [6]): > 10 fold
proliferation of TAMs (TAMs [7]; 48 h): increased proliferation of TAMs in a dose-dependent manner
Number of TAMs (Fig.6a) (TAMs [7]; CSF1 10): 15.5 and 19.7 and 20.1
Number of TAMs (Fig.6a) (TAMs [7]; CSF1 50): 45.6 and 59.6 and 67.2
